Paper PMC6555819, “Comprehensive study of nuclear receptor DNA binding provides a revised framework for understanding receptor specificity”

B1: NRC3_random_hg19_17_o1 (dsDNA)
DNA 1: GCCTGCAGTTTCACTTTGCATGTCTTCTTTCCTCAAGCGATTGACAGCGTAGAATGAAGG
DNA 2: CCTTCATTCTACGCTGTCAATCGCTTGAGGAAAGAAGACATGCAAAGTGAAACTGCAGGC
B2: NRC3_random_hg19_370_o1 (dsDNA)
DNA 1: GCTTTCTTTCTCTCTTGTCTGATTGCTCTGGCTAGAGCGATTGACAGCGTAGAATGAAGG
DNA 2: CCTTCATTCTACGCTGTCAATCGCTCTAGCCAGAGCAATCAGACAAGAGAGAAAGAAAGC
B3: NRC3_random_hg19_154_o1 (dsDNA)
DNA 1: GCAAGCATAGCTTTGAGAGCAGTAAAGTGGTTCATTGCGATTGACAGCGTAGAATGAAGG
DNA 2: CCTTCATTCTACGCTGTCAATCGCAATGAACCACTTTACTGCTCTCAAAGCTATGCTTGC
B4: NRC3_random_hg19_438_o1 (dsDNA)
DNA 1: GCTGTCGCCATCAAGCTACCATTGACTTTCTTCACAGCGATTGACAGCGTAGAATGAAGG
DNA 2: CCTTCATTCTACGCTGTCAATCGCTGTGAAGAAAGTCAATGGTAGCTTGATGGCGACAGC
B5: NRC3_random_hg19_353_o1 (dsDNA)
DNA 1: GCATAGAACTTAACTACCACCTCTCATTACCTGGAGGCGATTGACAGCGTAGAATGAAGG
DNA 2: CCTTCATTCTACGCTGTCAATCGCCTCCAGGTAATGAGAGGTGGTAGTTAAGTTCTATGC
B6: NRC3_wobSeed123_DR5_G26A_o1 (dsDNA)
DNA 1: GCCCTCGGAGGACAACAGGAGGTCAAAGCTGCCAGAGCGATTGACAGCGTAGAATGAAGG
DNA 2: CCTTCATTCTACGCTGTCAATCGCTCTGGCAGCTTTGACCTCCTGTTGTCCTCCGAGGGC
B7: NRC3_wobSeed89_DR3_C26G_o1 (dsDNA)
DNA 1: GCCTATGTAGGTTAAGGGGGTCATTGAGTTTGAAAGGCGATTGACAGCGTAGAATGAAGG
DNA 2: CCTTCATTCTACGCTGTCAATCGCCTTTCAAACTCAATGACCCCCTTAACCTACATAGGC
B8: NRC3_random_hg19_125_o1 (dsDNA)
DNA 1: GCCAACCTACCAAACCATAACCAGTGTGTTTGCTCCGCGATTGACAGCGTAGAATGAAGG
DNA 2: CCTTCATTCTACGCTGTCAATCGCGGAGCAAACACACTGGTTATGGTTTGGTAGGTTGGC
B9: NRC3_random_hg19_3_o1 (dsDNA)
DNA 1: GCGCCAGAGGTGGAATGATATGATATGTCTCTGTGTGCGATTGACAGCGTAGAATGAAGG
DNA 2: CCTTCATTCTACGCTGTCAATCGCACACAGAGACATATCATATCATTCCACCTCTGGCGC
B10: NRC3_random_hg19_107_o1 (dsDNA)
DNA 1: GCCTCAGGCTGAGTTGTGGTAGTGTAATCATAGCTCGCGATTGACAGCGTAGAATGAAGG
DNA 2: CCTTCATTCTACGCTGTCAATCGCGAGCTATGATTACACTACCACAACTCAGCCTGAGGC
B11: NRC3_random_hg19_337_o1 (dsDNA)
DNA 1: GCGTATTGAGCATCTATGATCTGCCAGTTAGGCTGCGCGATTGACAGCGTAGAATGAAGG
DNA 2: CCTTCATTCTACGCTGTCAATCGCGCAGCCTAACTGGCAGATCATAGATGCTCAATACGC
B12: NRC3_random_hg19_132_o1 (dsDNA)
DNA 1: GCCAATGCCAGCTACCAGGAGGCTGAGGTGTGAGAGGCGATTGACAGCGTAGAATGAAGG
DNA 2: CCTTCATTCTACGCTGTCAATCGCCTCTCACACCTCAGCCTCCTGGTAGCTGGCATTGGC
B13: NRC3_random_hg19_409_o1 (dsDNA)
DNA 1: GCGACTGCACTCCAGCCTGGGTGACACAACAAGACTGCGATTGACAGCGTAGAATGAAGG
DNA 2: CCTTCATTCTACGCTGTCAATCGCAGTCTTGTTGTGTCACCCAGGCTGGAGTGCAGTCGC
B14: NRC3_random_hg19_161_o1 (dsDNA)
DNA 1: GCTCTGTGGCCTCGGCTCTCCAGGACTCGGAGGCTCGCGATTGACAGCGTAGAATGAAGG
DNA 2: CCTTCATTCTACGCTGTCAATCGCGAGCCTCCGAGTCCTGGAGAGCCGAGGCCACAGAGC
B15: NRC3_random_hg19_247_o1 (dsDNA)
DNA 1: GCGCATGCCACAGGACTGGTAGGCAGCTCCATCTGCGCGATTGACAGCGTAGAATGAAGG
DNA 2: CCTTCATTCTACGCTGTCAATCGCGCAGATGGAGCTGCCTACCAGTCCTGTGGCATGCGC
B16: NRC3_random_hg19_30_o1 (dsDNA)
DNA 1: GCTGGAATGCAGTGGCACGATCACACATCACTGCAAGCGATTGACAGCGTAGAATGAAGG
DNA 2: CCTTCATTCTACGCTGTCAATCGCTTGCAGTGATGTGTGATCGTGCCACTGCATTCCAGC
B17: NRC3_random_hg19_260_o1 (dsDNA)
DNA 1: GCGGAAGTCCTCTTTGCCACATTTCCAACAGATGGCGCGATTGACAGCGTAGAATGAAGG
DNA 2: CCTTCATTCTACGCTGTCAATCGCGCCATCTGTTGGAAATGTGGCAAAGAGGACTTCCGC
B18: NRC3_random_hg19_108_o1 (dsDNA)
DNA 1: GCTAGGAATGTGAGTTTCTCTAAGTTCTATTCCTGGGCGATTGACAGCGTAGAATGAAGG
DNA 2: CCTTCATTCTACGCTGTCAATCGCCCAGGAATAGAACTTAGAGAAACTCACATTCCTAGC
B19: NRC3_random_hg19_251_o1 (dsDNA)
DNA 1: GCCTGTGGAATCCAACATGCCAAATGCTTGCTTGAGGCGATTGACAGCGTAGAATGAAGG
DNA 2: CCTTCATTCTACGCTGTCAATCGCCTCAAGCAAGCATTTGGCATGTTGGATTCCACAGGC
B20: NRC3_random_hg19_461_o1 (dsDNA)
DNA 1: GCGCCTGACTCCAGCCCACAGGCTGGGAGTGGAAGTGCGATTGACAGCGTAGAATGAAGG
DNA 2: CCTTCATTCTACGCTGTCAATCGCACTTCCACTCCCAGCCTGTGGGCTGGAGTCAGGCGC
B21: NRC3_random_hg19_426_o1 (dsDNA)
DNA 1: GCTGGAATCCTAGTGCTTTGGGAGGCTGAGGCTGGAGCGATTGACAGCGTAGAATGAAGG
DNA 2: CCTTCATTCTACGCTGTCAATCGCTCCAGCCTCAGCCTCCCAAAGCACTAGGATTCCAGC
B22: NRC3_wobSeed125_DR5_G11C_o1 (dsDNA)
DNA 1: GCCCTTACGGCTCACTGACAGGTTATAGCATTTGGAGCGATTGACAGCGTAGAATGAAGG
DNA 2: CCTTCATTCTACGCTGTCAATCGCTCCAAATGCTATAACCTGTCAGTGAGCCGTAAGGGC
B23: NRC3_wobSeed100_DR4_A24T_o1 (dsDNA)
DNA 1: GCCCTACTGGGCCACGAAAGGTCTTTGATTCAGTGAGCGATTGACAGCGTAGAATGAAGG
DNA 2: CCTTCATTCTACGCTGTCAATCGCTCACTGAATCAAAGACCTTTCGTGGCCCAGTAGGGC
B24: NRC3_wobSeed93_DR3_T12A_o1 (dsDNA)
DNA 1: GCAGTCAAAGTACATCTAGGTAACGTAAGATATGCTGCGATTGACAGCGTAGAATGAAGG
DNA 2: CCTTCATTCTACGCTGTCAATCGCAGCATATCTTACGTTACCTAGATGTACTTTGACTGC
B25: NRC3_random_hg19_191_o1 (dsDNA)
DNA 1: GCAGGAGAGACAGAGGAAGAGATGTGACATCAGAAGGCGATTGACAGCGTAGAATGAAGG
DNA 2: CCTTCATTCTACGCTGTCAATCGCCTTCTGATGTCACATCTCTTCCTCTGTCTCTCCTGC
B26: NRC3_random_hg19_274_o1 (dsDNA)
DNA 1: GCTTCGTGCCCTTCCCTTGGACAGACTCCCTTGGCAGCGATTGACAGCGTAGAATGAAGG
DNA 2: CCTTCATTCTACGCTGTCAATCGCTGCCAAGGGAGTCTGTCCAAGGGAAGGGCACGAAGC
B27: NRC3_random_hg19_335_o1 (dsDNA)
DNA 1: GCATCTATGTGCATATGGAAGAAAGGAATGCAAGATGCGATTGACAGCGTAGAATGAAGG
DNA 2: CCTTCATTCTACGCTGTCAATCGCATCTTGCATTCCTTTCTTCCATATGCACATAGATGC
B28: NRC3_random_hg19_115_o1 (dsDNA)
DNA 1: GCATCACCTGAGGCCAGGAATTCGAACCAGCATGGCGCGATTGACAGCGTAGAATGAAGG
DNA 2: CCTTCATTCTACGCTGTCAATCGCGCCATGCTGGTTCGAATTCCTGGCCTCAGGTGATGC
B29: NRC3_wobSeed124_DR5_C13G_o1 (dsDNA)
DNA 1: GCCCTACTGGGCGATTCAGAGGTCATTGATCATATGGCGATTGACAGCGTAGAATGAAGG
DNA 2: CCTTCATTCTACGCTGTCAATCGCCATATGATCAATGACCTCTGAATCGCCCAGTAGGGC
B30: NRC3_wobSeed18_DR0_C13A_o1 (dsDNA)
DNA 1: GCGATACAGGGTAAAGGCCAGAGTACGCGTATTGATGCGATTGACAGCGTAGAATGAAGG
DNA 2: CCTTCATTCTACGCTGTCAATCGCATCAATACGCGTACTCTGGCCTTTACCCTGTATCGC

Experiments:
Experiment in all cases: no ligand; PBM; 270 nM : 90 nM RXRa; PBS pH 7.4, 2% milk, 0.02% Triton X-100, 1 mM DTT, BSA, 0.4 mg/ml salmon testes DNA
VDR:RXRa = VDR:RXRa (Homo sapiens, UniProt P11473;P19793 full;full); conditions: tags: His kept;His cleaved; copies: 1;1; label: surface-attached array probe
VDR:RXRa, sequence (P11473 whole entry, chain 1 of 2): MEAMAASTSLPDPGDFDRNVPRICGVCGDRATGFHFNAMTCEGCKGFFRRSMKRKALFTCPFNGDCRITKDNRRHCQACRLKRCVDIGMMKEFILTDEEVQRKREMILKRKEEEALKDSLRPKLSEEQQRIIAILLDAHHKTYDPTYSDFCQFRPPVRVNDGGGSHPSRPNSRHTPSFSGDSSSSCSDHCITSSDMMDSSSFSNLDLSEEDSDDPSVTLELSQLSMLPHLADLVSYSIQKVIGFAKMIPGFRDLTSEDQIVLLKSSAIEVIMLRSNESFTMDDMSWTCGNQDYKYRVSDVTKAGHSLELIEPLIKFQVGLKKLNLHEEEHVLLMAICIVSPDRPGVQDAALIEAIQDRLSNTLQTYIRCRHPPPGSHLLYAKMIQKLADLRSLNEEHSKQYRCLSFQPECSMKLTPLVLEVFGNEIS
VDR:RXRa, sequence (P19793 whole entry, chain 2 of 2): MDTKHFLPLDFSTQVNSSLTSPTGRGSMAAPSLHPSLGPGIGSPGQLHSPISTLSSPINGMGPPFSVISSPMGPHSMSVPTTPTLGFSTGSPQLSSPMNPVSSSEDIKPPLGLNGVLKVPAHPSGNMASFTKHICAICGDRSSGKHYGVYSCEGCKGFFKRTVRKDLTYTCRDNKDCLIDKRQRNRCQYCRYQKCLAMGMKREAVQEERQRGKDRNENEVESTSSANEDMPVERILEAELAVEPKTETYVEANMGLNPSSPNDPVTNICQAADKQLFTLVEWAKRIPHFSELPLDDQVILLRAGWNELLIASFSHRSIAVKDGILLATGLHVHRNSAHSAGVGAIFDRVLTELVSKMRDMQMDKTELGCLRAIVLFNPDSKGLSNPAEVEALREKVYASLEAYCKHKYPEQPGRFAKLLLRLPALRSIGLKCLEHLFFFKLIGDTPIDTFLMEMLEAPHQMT
Outline: (§1)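 Each nuclear receptor dimer, without ligand, was incubated for 1 h on custom Agilent 4×180K protein-binding microarrays. Binding was detected with antibodies against each partner (one per run), and scanned fluorescence was regression-normalized. The binding z-scores are referenced to random human genomic background probes.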

PPARa:RXRa = PPARa:RXRa (Homo sapiens, UniProt Q07869;P19793 full;full); conditions: tags: GST kept;His cleaved; copies: 1;1; label: surface-attached array probe
PPARa:RXRa, sequence (Q07869 whole entry, chain 1 of 2): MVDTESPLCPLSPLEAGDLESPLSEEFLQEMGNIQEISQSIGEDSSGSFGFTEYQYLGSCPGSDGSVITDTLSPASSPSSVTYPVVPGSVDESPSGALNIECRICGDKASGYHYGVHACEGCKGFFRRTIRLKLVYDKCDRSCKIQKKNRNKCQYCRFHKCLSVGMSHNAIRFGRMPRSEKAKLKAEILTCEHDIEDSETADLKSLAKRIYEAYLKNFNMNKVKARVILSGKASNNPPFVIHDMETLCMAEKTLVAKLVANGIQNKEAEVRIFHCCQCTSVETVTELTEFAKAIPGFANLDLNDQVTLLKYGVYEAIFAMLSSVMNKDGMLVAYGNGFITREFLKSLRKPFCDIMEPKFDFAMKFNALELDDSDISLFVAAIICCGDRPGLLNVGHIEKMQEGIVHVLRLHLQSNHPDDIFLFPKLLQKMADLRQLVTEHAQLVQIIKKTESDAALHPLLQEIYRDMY
PPARa:RXRa, sequence (P19793 whole entry, chain 2 of 2): as the sequence (P19793 whole entry, chain 2 of 2) above
Outline: as §1

RARg:RXRa = RARg:RXRa (Homo sapiens, UniProt P13631;P19793 full;full); conditions: tags: His kept;His cleaved; copies: 1;1; label: surface-attached array probe
RARg:RXRa, sequence (P13631 whole entry, chain 1 of 2): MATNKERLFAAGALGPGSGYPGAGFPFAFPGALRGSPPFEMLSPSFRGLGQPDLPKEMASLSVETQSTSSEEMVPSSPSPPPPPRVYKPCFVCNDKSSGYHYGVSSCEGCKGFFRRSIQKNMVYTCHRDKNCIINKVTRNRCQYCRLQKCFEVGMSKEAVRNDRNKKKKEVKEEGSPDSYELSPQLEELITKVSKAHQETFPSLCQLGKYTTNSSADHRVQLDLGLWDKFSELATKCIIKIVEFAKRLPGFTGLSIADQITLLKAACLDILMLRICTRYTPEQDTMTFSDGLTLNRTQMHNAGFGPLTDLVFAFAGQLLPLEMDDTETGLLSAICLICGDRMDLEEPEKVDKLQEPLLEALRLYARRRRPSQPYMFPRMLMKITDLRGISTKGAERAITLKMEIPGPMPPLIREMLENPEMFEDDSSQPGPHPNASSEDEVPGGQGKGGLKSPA
RARg:RXRa, sequence (P19793 whole entry, chain 2 of 2): as the sequence (P19793 whole entry, chain 2 of 2) above
Outline: as §1

Binder	binding signal (VDR:RXRa)	binding signal (PPARa:RXRa)	binding signal (RARg:RXRa)
B1	0.19 PBM z-score against 500 random probes		
B2	0.44 PBM z-score against 500 random probes		
B3	-0.41 PBM z-score against 500 random probes		
B4	-0.03 PBM z-score against 500 random probes	0.12 PBM z-score against 500 random probes	
B5	0.31 PBM z-score against 500 random probes	-0.07 PBM z-score against 500 random probes	
B6	3.35 PBM z-score against 500 random probes		4.36 PBM z-score against 500 random probes
B7	8.2 PBM z-score against 500 random probes	6.55 PBM z-score against 500 random probes	
B8	0.33 PBM z-score against 500 random probes		
B9	-0.61 PBM z-score against 500 random probes		
B10	-0.64 PBM z-score against 500 random probes		-0.79 PBM z-score against 500 random probes
B11	-0.54 PBM z-score against 500 random probes		
B12	-0.75 PBM z-score against 500 random probes		-0.61 PBM z-score against 500 random probes
B13	-0.08 PBM z-score against 500 random probes		
B14	-0.38 PBM z-score against 500 random probes		
B15	-0.83 PBM z-score against 500 random probes		
B16	-0.46 PBM z-score against 500 random probes		
B17	0.14 PBM z-score against 500 random probes	0.42 PBM z-score against 500 random probes	
B18	0.17 PBM z-score against 500 random probes		0.22 PBM z-score against 500 random probes
B19	-0.19 PBM z-score against 500 random probes		
B20	-1.25 PBM z-score against 500 random probes		
B21	-0.9 PBM z-score against 500 random probes	-0.97 PBM z-score against 500 random probes	
B22	0.16 PBM z-score against 500 random probes		
B23	-0.14 PBM z-score against 500 random probes		
B24	0.15 PBM z-score against 500 random probes		
B25	0.21 PBM z-score against 500 random probes		
B26	0.25 PBM z-score against 500 random probes		
B27	-0.62 PBM z-score against 500 random probes		
B28	-0.3 PBM z-score against 500 random probes	-0.52 PBM z-score against 500 random probes	
B29	3.28 PBM z-score against 500 random probes	3.07 PBM z-score against 500 random probes	
B30	0.02 PBM z-score against 500 random probes		
